Source: patent publication US20200190501

Biological target: T1, mini-cellulose-binding protein A (mCbpA), P38058
T1 chain: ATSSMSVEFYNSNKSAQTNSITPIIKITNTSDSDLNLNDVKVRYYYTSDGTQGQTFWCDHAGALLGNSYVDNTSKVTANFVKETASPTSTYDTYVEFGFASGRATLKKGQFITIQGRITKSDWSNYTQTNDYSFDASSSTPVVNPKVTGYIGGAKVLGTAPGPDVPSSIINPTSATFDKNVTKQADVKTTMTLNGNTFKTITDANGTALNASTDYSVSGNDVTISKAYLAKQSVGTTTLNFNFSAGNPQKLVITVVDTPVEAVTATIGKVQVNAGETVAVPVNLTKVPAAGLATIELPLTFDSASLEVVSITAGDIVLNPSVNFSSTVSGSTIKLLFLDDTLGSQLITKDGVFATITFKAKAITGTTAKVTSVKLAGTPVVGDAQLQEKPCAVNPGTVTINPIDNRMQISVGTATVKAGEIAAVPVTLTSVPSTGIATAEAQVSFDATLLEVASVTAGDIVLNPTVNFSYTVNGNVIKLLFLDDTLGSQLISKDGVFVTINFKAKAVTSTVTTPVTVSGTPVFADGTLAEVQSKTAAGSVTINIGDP

B1: dockerin-fused chimeric beta-agarase AgaB (AgaB-Doc) (protein)
chain: GDNSKFDSATDLPVEQEQEQETEQEGEPEESSEQDLVEEVDWKDIPVPADAGPNMKWEFQEISDNFEYEAPADNKGSEFLEKWDDFYHNAWAGPGLTEWKRDRSYVADGELKMWATRKPGSDKINMGCITSKTRVVYPVYIEARAKVMNSTLASDVWLLSADDTQEIDILEAYGADYSESAGKDHSYFSKKVHISHHVFIRDPFQDYQPKDAGSWFEDGTVWNKEFHRFGVYWRDPWHLEYYIDGVLVRTVSGKDIIDPKHFTNTTDPGNTEIDTRTGLNKEMDIIINTEDQTWRSSPASGLQSNTYTPTDNELSNIENNTFGVDWIRIYKPVEKVNKDGKVNAIDYAVLKSILLGTNTNVDLSVSDMNKDGKVNALDLAVLKKMLLS
- degradation activity using purified agar as a substrate: the degradation activity increased in the order of agarase, agarase-expansin, and agarase-expansin-mCbpA
